Literature values as cited in paper PMC2962622.

Target: NIFK 44-residue phosphopeptide (Homo sapiens) (UniProt Q9BYG3)
Sequence of UniProt Q9BYG3 (Q9BYG3 2-293): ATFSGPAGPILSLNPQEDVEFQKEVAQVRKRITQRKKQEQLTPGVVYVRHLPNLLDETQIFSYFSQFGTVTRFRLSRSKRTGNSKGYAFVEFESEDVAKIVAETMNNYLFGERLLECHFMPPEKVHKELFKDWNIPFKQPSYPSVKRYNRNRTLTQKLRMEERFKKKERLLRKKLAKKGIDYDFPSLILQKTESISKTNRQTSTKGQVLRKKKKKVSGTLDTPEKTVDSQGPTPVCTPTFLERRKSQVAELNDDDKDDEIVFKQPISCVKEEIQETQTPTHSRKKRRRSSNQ

## Ki67 FHA (from UniProt P46013)
  Kd: 77 nM
